This note sets out measurements from PMC10617019 (Nature cell biology, 2023).

Where no end group is shown, it is not given here. [ ]: non-standard residue; d: D form. Hyp = O=C(O)[C@@H]1C[C@@H](O)CN1

This assay addresses pVHL in complex with elongin C and elongin B (VCB) (human, UniProt P40337 55-213; Q15370 1-118). The experiment in a line: fluorescence polarisation. In general terms: Fluorescence polarisation rises when a labelled molecule tumbles more slowly, as on binding a larger partner.

Usually Kd stands for the free concentration of one partner at which half of the binding sites on the other are occupied at equilibrium, for simple one-to-one binding. Read a low Kd as a tighter complex.

B1: Fluorescein isothiocyanate-labelled RIPK1 peptide T189LYYMA(Hyp)EHLNDVNA203 (peptide)
peptide: TLYYMA[Hyp]EHLNDVNA
modifications: also: FITC label, position not given here
Molecule B1 yielded a Kd of 5.9 µM.
